Target: group I phospholipase A2
Test: 125I-PLA2-I binding in COS7 culture supernatant, polyethylene glycol coprecipitation

Kd: 800 pM
B1: secretion type PLA2-I receptor protein (receptor)
chain: ETAAWAVTPERLREWQDKGIFIIQSENLEKCIQASKSTLTLENCKPPNKYMLWKWVSNHRLFNIGGSGCLGLNVSSPEQPLSIYECDSTHVSLKWHCNKKTITGPLQYLVQVKQDNTLVASRKYLHKWVSYMSGGGGICDYLHKDLYTIKGNAHGTPCMFPFQYNQQWHHECTREGREDNLLWCATTSRYERDEKWGFCPDPTSTEVGCDAVWEKDLHSRICYQFNLLSSLSWSEAHSSCQMQGAALLSIADETEENFVRKHLGSEAVEVWMGLNQLDEDAGWQWSDRTPLNYLNWKPEINFEPFVEYHCGTFNAFMPKAWKSRDCESTLPYVCKKYLNPTDHGVVEKDAWKYYATHCEPGWNPHNRNCYKLQKEKKTWNEALQSCQSNNSVLTDITSLAEVEFLVTLLGDENASETWIGLSSHKIPVSFEWSNGSSVTFTNWHTLEPHIFPNRSQLCVSAEQSEGHWKVKNCEETLFYLCKKTGLVLSDTESGCQKGWERHGKFCYKIDTVLRSFDHASSGYYCPPALITITSRFEQAFITSLISSVVKTKDTYFWIALQDQNNTGEYTWKTAGQQLEPVKYTHWNTRQPRYSGGCVVMRGRSHPGRWEVRDCRHFKAMSLCKQPVENREKTKQEEGWPFHPCYLDWESEPGLASCFKVFHSEKVLMKRTWRQAEEFCEEFGAHLASFAHIEEENFVNELLHSKFNRTEERQFWIGFNKRNPLNAGSWEWSDGTPVVSSFLDNSYFGEDARNCAVYKANKTLLPSYCGSKREWICKIPRDVRPKVPPWYQYDAPWLFYQDAEYLFHISASEWSSFEFVCGWLRSDILTIHSAHEQEFIHSKIRALSKYGVNWWIGLREERASDEFRWRDGSPVIYQNWDKGKERSMGLNESQRCGFISSITGLWASEECSISMPSICKRKKVWVIEKKKDIPKQHGTCPKGWLYFDYKCLLLKIPEGPSDWKNWTSAQDFCVEEGGTLVAIENEVEQAFITMNLFGHTTNVWIGLQDDDYEKWLNGRPVSYSNWSPFDTKNIPNHNTTEVQKRIPLCGLLSNNPNFHFTGKWYFEDCREGYGFVCEKMQDASGHSINTSDMYPIPNTLEYGNRTYKIINANMTWYTALKTCLMHGAELASITDQYHQSFLTVILNRVGYAHWIGLFTEDNGLSFDWSDGTKSSFTFWKDDESSFLGDCVFADTSGRWSSTACESYLQGAICQVPTETRLSGRLELCSETSIPWIKFKSNCYSFSTVLESTSFEAAHEFCKKKGSNLLTIKDEAENSFLLEELLAFRSSVQMIWLNAQFDGDNETIKWFDGTPTDQSNWGIRKPEVYHFKPHLCVALRIPEGVWQLSSCQDKKGFICKMEADIHTVKKHPGK

Source: patent US5612190
